Data: publication PMC6085346, “A nuclear-encoded protein, mTERF6, mediates transcription termination of rpoA polycistron for plastid-encoded RNA polymerase-dependent chloroplast gene expression and chloroplast development”

What was measured:
[1] = biological target: T1, MBP-mTERF6.1 (without transit peptide) (Arabidopsis thaliana, UniProt Q9SZL6 25-333); assay: EMSA; 5 mM MgCl2; stronger shift than probe A; weakened by 1-, 2-, 8-fold competitor; EMSA 20 uL: LightShift binding buffer, 5 mM MgCl2, 1 mM EDTA, 2.5% glycerol, 0.05% NP-40, 50 ng/uL poly(dI-dC), 20 fmol probe (printed 'fmal'), 0.5 ug protein; details: protein: recombinant; tags: N-terminal MBP (pMAL-c5X); label: 5' biotin
T1 sequence: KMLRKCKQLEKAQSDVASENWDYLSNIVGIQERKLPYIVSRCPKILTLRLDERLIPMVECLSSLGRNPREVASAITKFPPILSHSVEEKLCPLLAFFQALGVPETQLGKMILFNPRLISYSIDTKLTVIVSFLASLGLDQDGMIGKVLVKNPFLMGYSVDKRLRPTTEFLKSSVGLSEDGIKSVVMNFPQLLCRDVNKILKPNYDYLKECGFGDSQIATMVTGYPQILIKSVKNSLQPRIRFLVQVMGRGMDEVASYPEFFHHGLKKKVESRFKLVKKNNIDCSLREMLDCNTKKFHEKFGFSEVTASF

[2] = biological target: T1, MBP-mTERF6.1 (without transit peptide); assay: EMSA; 5 mM MgCl2; shift greatly reduced by 200-fold unlabeled probe A; EMSA 20 uL: LightShift binding buffer, 5 mM MgCl2, 1 mM EDTA, 2.5% glycerol, 0.05% NP-40, 50 ng/uL poly(dI-dC), 20 fmol probe (printed 'fmal'), 0.5 ug protein; details: protein: recombinant; tags: N-terminal MBP (pMAL-c5X); label: 5' biotin

AATTTCTATTTTCCAGTCGAAC (ssDNA) [probe B (22 nt, single strand)]
binding result [1]: binds

B1: probe A (rpoA 3'-end, 122 bp) (dsDNA)
DNA 1: AATTTCTATTTTCCAGTCGAACCCATTTTAATTAATTAATTAAATTAATTAGAATTAGATATGTATCTAGGGAGAATTCATTTGGAAATGACTACTCCCTAGATACCTCCCTAGATACCCAC
DNA 2: GTGGGTATCTAGGGAGGTATCTAGGGAGTAGTCATTTCCAAATGAATTCTCCCTAGATACATATCTAATTCTAATTAATTTAATTAATTAATTAAAATGGGTTCGACTGGAAAATAGAAATT
binding result [2]: binds
